We go through 2 molecules from publication PMC4703518.

Series [1] addresses T1, Unkempt ZnF1-6 WT (mouse, UniProt Q8BL48 31-335).
T1 sequence: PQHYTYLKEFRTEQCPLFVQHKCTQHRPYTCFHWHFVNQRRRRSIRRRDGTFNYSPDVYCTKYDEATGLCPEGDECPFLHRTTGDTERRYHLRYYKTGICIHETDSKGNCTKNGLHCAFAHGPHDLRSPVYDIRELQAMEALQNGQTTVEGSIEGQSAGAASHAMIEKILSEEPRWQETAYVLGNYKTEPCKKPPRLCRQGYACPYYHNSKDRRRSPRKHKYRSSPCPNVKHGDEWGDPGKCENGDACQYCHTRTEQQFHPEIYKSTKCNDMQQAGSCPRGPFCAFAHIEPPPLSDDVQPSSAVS
In words: EMSA.

Series [2] deals with T2, Unkempt ZnF4-6 (mouse, UniProt Q8BL48 204-335).
T2 sequence: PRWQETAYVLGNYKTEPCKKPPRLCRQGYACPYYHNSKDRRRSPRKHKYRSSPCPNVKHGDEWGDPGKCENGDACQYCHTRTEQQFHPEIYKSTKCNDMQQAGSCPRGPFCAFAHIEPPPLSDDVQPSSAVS
In words: ITC. In general terms: In ITC the heat of successive injections is recorded.

Series [3] deals with T3, Unkempt ZnF1-3 (mouse, UniProt Q8BL48 31-174).
T3 sequence: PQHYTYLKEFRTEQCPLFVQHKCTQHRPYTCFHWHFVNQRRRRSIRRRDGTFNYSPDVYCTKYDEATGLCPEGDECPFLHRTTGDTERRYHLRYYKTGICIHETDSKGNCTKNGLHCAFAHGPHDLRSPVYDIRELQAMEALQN
As to the kind of experiment: ITC.

For the molecule ACUUAGAAUUAUUAAUGA (ssRNA) [HSPA8 URE 18-mer WT], the binding result in series [1] and in series [2] was “binds” throughout. Regarding ACUCCCAAUUAUUAAUGA (ssRNA) [HSPA8 URE 18-mer UAG-mutated], in series [3], the binding result is “binds”.
